Series [1] deals with major royal jelly protein 3 (MRJP-3) (Apis mellifera) (UniProt Q17060). Nature of the series: SEC; MRJP-3 concentrated to 100 uM, 16/100 Superdex 200, eluted at 0.5 ml/min in RJ buffer (pH 4.0), no RNA; column calibrated with mass standards; monomer to higher-order oligomer.
Series [2] shares this target. Nature of the series: MST; increasing unlabelled MRJP-3 added to fluorescently labelled MRJP-3 monomer; Monolith NT.115, 25 °C, RJ buffer with 0.01% Tween 20; apparent Kd of self-association; signal stable from approximately 40 uM added MRJP-3.
For series [3], the target named is T1, MRJP-3 (jelly-purified) (Apis mellifera, UniProt Q17060 21-544).
T1 sequence: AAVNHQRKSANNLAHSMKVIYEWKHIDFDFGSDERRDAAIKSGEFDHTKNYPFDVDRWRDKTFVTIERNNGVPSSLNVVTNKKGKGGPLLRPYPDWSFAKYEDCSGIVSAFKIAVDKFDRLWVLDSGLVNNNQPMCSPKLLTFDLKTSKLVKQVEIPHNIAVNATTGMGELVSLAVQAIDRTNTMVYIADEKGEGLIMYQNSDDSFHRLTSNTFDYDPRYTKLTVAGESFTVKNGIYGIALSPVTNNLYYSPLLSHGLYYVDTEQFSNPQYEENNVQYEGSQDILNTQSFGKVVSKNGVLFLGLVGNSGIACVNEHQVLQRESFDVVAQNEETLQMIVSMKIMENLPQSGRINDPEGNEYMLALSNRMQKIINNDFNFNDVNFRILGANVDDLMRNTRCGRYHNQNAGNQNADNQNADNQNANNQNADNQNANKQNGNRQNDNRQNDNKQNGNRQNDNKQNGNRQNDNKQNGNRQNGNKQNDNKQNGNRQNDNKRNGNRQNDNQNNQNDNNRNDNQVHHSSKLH
Put plainly: MST; first of three binding phases; MST: RJ buffer (composition not in material) + 0.01% Tween 20, 25 C; EMSA: room temperature 0.5-3 h, 0.8% agarose, 1xTAE. To be noted: protein: native; label: Alexa Fluor 488 (Ulysis) for MST. (In general: In EMSA bound probe runs differently from free probe, usually more slowly.)

The target of series [4] is T1, MRJP-3 (jelly-purified). Nature of the series: MST; third of three binding phases; MST: RJ buffer (composition not in material) + 0.01% Tween 20, 25 C; EMSA: room temperature 0.5-3 h, 0.8% agarose, 1xTAE. The conditions noted are these: protein: native; label: Alexa Fluor 488 (Ulysis) for MST.
Series [5] addresses T1, MRJP-3 (jelly-purified). Nature of the series: MST; second of three binding phases; MST: RJ buffer (composition not in material) + 0.01% Tween 20, 25 C; EMSA: room temperature 0.5-3 h, 0.8% agarose, 1xTAE. To be noted: protein: native; label: Alexa Fluor 488 (Ulysis) for MST.
For series [6], the target named is T1, MRJP-3 (jelly-purified). Put plainly: EMSA; 42.8 uM protein; MST: RJ buffer (composition not in material) + 0.01% Tween 20, 25 C; EMSA: room temperature 0.5-3 h, 0.8% agarose, 1xTAE. To be noted: protein: native.
Series [7] concerns the target T1, MRJP-3 (jelly-purified). Nature of the series: EMSA; 42.8 uM protein, 0.27 uM RNA; MST: RJ buffer (composition not in material) + 0.01% Tween 20, 25 C; EMSA: room temperature 0.5-3 h, 0.8% agarose, 1xTAE. The conditions noted are these: protein: native.

Consider “major royal jelly protein 3 (MRJP-3) (from UniProt Q17060 21-544) (natural protein)”, for which the stoichiometry N (monomer units) in series [1] was 20. The Kd in series [2] was found to be 3.5 µM.
As for UCAUAUGGGCUCACUGUUACUA (ssRNA) [22 nt ssRNA], the results for the Kd in the series with MRJP-3 (jelly-purified) [3], with MRJP-3 (jelly-purified) [4] and with MRJP-3 (jelly-purified) [5] were 0.004 µM, 25 µM and 0.3 µM, respectively.
UGUGUUUAUAGCGGAUUU (ssRNA) [18 nt ssRNA]: the binding result with MRJP-3 (jelly-purified) [6] is listed as “binds”.
In the case of ACGCUUCUAACUUCAAGAUUUUACACAAUCAUAUGGGCUCACUGUUACUA (ssRNA) [50 nt ssRNA], the binding result in the series with MRJP-3 (jelly-purified) [7] is on record as “binds”.

These data come from publication PMC6509358, “A Secreted RNA Binding Protein Forms RNA-Stabilizing Granules in the Honeybee Royal Jelly”.
